Data as given in PMC12416549 (2024).
Where a chain is given by its changes, count along the chain named. Numbers in names are those of the source.

T1: TNFR1 (Homo sapiens, UniProt P19438)
T1 chain: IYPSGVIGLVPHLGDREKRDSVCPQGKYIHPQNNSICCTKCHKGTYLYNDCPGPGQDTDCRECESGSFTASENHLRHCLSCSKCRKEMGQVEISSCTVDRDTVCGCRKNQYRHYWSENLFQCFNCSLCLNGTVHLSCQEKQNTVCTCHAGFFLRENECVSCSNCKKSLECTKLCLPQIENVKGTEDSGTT

B1: K62F (designed binder)
chain: MTLQELLREEALRRAEAEAFRYALELLAEKFPEQKEYLLDLAEEIESQIRSLSGVDVEDVRFFLDKEWAWVKELLAEHPAELAEVEAARAARLAELRAEVEAKVAA
B2: A11Q (designed binder)
chain: B1 chain with A11Q, F62K
B3: R89A (designed binder)
chain: B1 chain with F62K, R89A
B4: P32Q (designed binder)
chain: B1 chain with P32Q, F62K
B5: W68A (designed binder)
chain: B1 chain with F62K, W68A
B6: E67G (designed binder)
chain: B1 chain with F62K, E67G
B7: I49R (designed binder)
chain: B1 chain with I49R, F62K
B8: S47E (designed binder)
chain: B1 chain with S47E, F62K
B9: E46Y (designed binder)
chain: B1 chain with E46Y, F62K
B10: E36K (designed binder)
chain: B1 chain with E36K, F62K
B11: E33L (designed binder)
chain: B1 chain with E33L, F62K
B12: V60H (designed binder)
chain: B1 chain with V60H, F62K
B13: V85A (designed binder)
chain: B1 chain with F62K, V85A
B14: T2A (designed binder)
chain: B1 chain with T2A, F62K
B15: S47G (designed binder)
chain: B1 chain with S47G, F62K
B16: K30I (designed binder)
chain: B1 chain with K30I, F62K
B17: K35S (designed binder)
chain: B1 chain with K35S, F62K
B18: E43T (designed binder)
chain: B1 chain with E43T, F62K
B19: R21I (designed binder)
chain: B1 chain with R21I, F62K
B20: A94L (designed binder)
chain: B1 chain with F62K, A94L
B21: H78Q (designed binder)
chain: B1 chain with F62K, H78Q
B22: A102P (designed binder)
chain: B1 chain with F62K, A102P
B23: A80H (designed binder)
chain: B1 chain with F62K, A80H
B24: R89P (designed binder)
chain: B1 chain with F62K, R89P
B25: E58F (designed binder)
chain: B1 chain with E58F, F62K
B26: E95V (designed binder)
chain: B1 chain with F62K, E95V
B27: A15H (designed binder)
chain: B1 chain with A15H, F62K
B28: F31Y (designed binder)
chain: B1 chain with F31Y, F62K
B29: A11W (designed binder)
chain: B1 chain with A11W, F62K
B30: V57D (designed binder)
chain: B1 chain with V57D, F62K
B31: F31E (designed binder)
chain: B1 chain with F31E, F62K
B32: W70R (designed binder)
chain: B1 chain with F62K, W70R
B33: K30L (designed binder)
chain: B1 chain with K30L, F62K
B34: L41R (designed binder)
chain: B1 chain with L41R, F62K
B35: P79L (designed binder)
chain: B1 chain with F62K, P79L
B36: R61H (designed binder)
chain: B1 chain with R61H, F62K
B37: V85K (designed binder)
chain: B1 chain with F62K, V85K
B38: E33N (designed binder)
chain: B1 chain with E33N, F62K
B39: L6C (designed binder)
chain: B1 chain with L6C, F62K
B40: L75G (designed binder)
chain: B1 chain with F62K, L75G
B41: R50K (designed binder)
chain: B1 chain with R50K, F62K
B42: L7S (designed binder)
chain: B1 chain with L7S, F62K
B43: K62C (designed binder)
chain: B1 chain with F62C
B44: K35I (designed binder)
chain: B1 chain with K35I, F62K
B45: A91K (designed binder)
chain: B1 chain with F62K, A91K
B46: R97I (designed binder)
chain: B1 chain with F62K, R97I
B47: L38T (designed binder)
chain: B1 chain with L38T, F62K
B48: A76H (designed binder)
chain: B1 chain with F62K, A76H
B49: I49T (designed binder)
chain: B1 chain with I49T, F62K
B50: F63W (designed binder)
chain: B1 chain with F62K, F63W
B51: A102Y (designed binder)
chain: B1 chain with F62K, A102Y
B52: Y37S (designed binder)
chain: B1 chain with Y37S, F62K
B53: M1D (designed binder)
chain: B1 chain with M1D, F62K
B54: K35R (designed binder)
chain: B1 chain with K35R, F62K
B55: L41Y (designed binder)
chain: B1 chain with L41Y, F62K
B56: R8Y (designed binder)
chain: B1 chain with R8Y, F62K
B57: L27E (designed binder)
chain: B1 chain with L27E, F62K
B58: E86P (designed binder)
chain: B1 chain with F62K, E86P
B59: L26G (designed binder)
chain: B1 chain with L26G, F62K

Biological target: T1, TNFR1
Test: yeast display SC50

Binder | apparent Kd (screen)
B1 | 593 pM
B2 | 790 pM
B3 | 790 pM
B4 | 593 pM
B5 | 1400 pM
B6 | 13800 pM
B7 | 593 pM
B8 | 490 pM
B9 | 539 pM
B10 | 3990 pM
B11 | 653 pM
B12 | 1270 pM
B13 | 790 pM
B14 | 790 pM
B15 | 1270 pM
B16 | 490 pM
B17 | 653 pM
B18 | 790 pM
B19 | 490 pM
B20 | 956 pM

Binder | apparent Kd (screen)
B21 | 869 pM
B22 | 956 pM
B23 | 869 pM
B24 | 24400 pM
B25 | 2730 pM
B26 | 490 pM
B27 | 539 pM
B28 | 593 pM
B29 | 405 pM
B30 | 3990 pM
B31 | 490 pM
B32 | 12500 pM
B33 | 539 pM
B34 | 15200 pM
B35 | 718 pM
B36 | 1400 pM
B37 | 653 pM
B38 | 539 pM
B39 | 2050 pM
B40 | 1400 pM

Binder | apparent Kd (screen)
B41 | 539 pM
B42 | 13800 pM
B43 | 490 pM
B44 | 2480 pM
B45 | 490 pM
B46 | 539 pM
B47 | 26900 pM
B48 | 790 pM
B49 | 539 pM
B50 | 869 pM
B51 | 653 pM
B52 | 12500 pM
B53 | 446 pM
B54 | 490 pM
B55 | 718 pM
B56 | 1050 pM
B57 | 869 pM
B58 | 4830 pM
B59 | 446 pM
